B1: Mycobacterium tuberculosis VapC30 toxin (natural protein)
chain: MMVIDTSALVAMLSDEPDAERFEAAVEADHIRLMSTASYLETALVIEARFGEPGGRELDLWLHRAAVDLVAVHADQADAARAAYRTYGKGRHRAGLNYGDCFSYGLAKISGQPLLFKGEDFQHTDIATVALP

Assays:
crystal structure = target: the molecule itself; assay: crystal structure
[1] = target: B1; assay: crystal structure

Binder	binding result (crystal structure)	binding result [1]
B1	binds	
Mycobacterium tuberculosis VapB30 antitoxin (natural protein) MALSIKHPEADRLARALAARTGETLTEAVVTALRERLARETGRARVVPLRDELAAIRHRCAALPVVDNRSAEAILGYDERGLPA	binds	binds

Source: PMC4551927 (Nucleic Acids Research, 2015)
